Results: the nanobody polyreactivity screen of Harvey et al. (2022)

Experiment: yeast display, Sf9 membrane polyspecificity reagent, FACS + sequencing; frameworks hold sequencing errors
Procedure, shortened: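 Sorting gates, low and high (top ~1%), were placed on anti-HA fluorescence to track expression and on streptavidin fluorescence to track reagent binding. A clone's polyreactivity label is taken from the gate it came out of. The reagent was 10% biotinylated, detergent-solubilized Sf9 membrane, applied for 1 hour at 4 °C to galactose-induced yeast display cells.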

Sequence	polyreactivity (PSR sort gate)
QVQLVESGGGLVQAGGSLRLTCAASGSTFHLYAMGWYRQAPGKEREFVAAIRGRGGNTYADSVKGRFTISRDNAKNTVYLQMNSLKPEDTAVNYCAAPLLRDLRSPYSYNYWGQGTQVTVSS	low polyreactivity
QVQLVESGGGLVQAGGSLRLTCAASGSTFPSYAMGWYRQAPGKERELVAAINSGGGTNYADSVKGRFTISRDNAKNTVYLHMNSLKPEDTAVYYCAKSRYDYTKTEGGYWGQGSQVTVSS	low polyreactivity
QVQLVESGGGLVQAGGSLRLTCAASGSTFPYNAMGWYRPATGKERELVASITGGRKKYADSVKGRFTISRDNEKNTVYLQMNRLKREDTAVYYCAADYYSLWIRRDSNYWGQGTQVTVSS	low polyreactivity
QVQLVESGGGLVQAGGSLRLTCAASGSTFSGYAMGWYRQAPGKERELVATISGGGSTYYADSVKGRFTISRDNAKNTVYLQMNILKPEDTAVYYCNAQGYGIFTSSLDYWGQGTQVTVSS	low polyreactivity
QVQLVESGGGLVQAGGSLRLTCAASGSTFSVYDMGWYRKAPGKERELVAAIDVTGGSTYYADSVKGRFTISRDNAKNTVSLQMNSLKPEDTAVYYCNAGKCYSLYGMYYWGQGTQVTVSS	low polyreactivity
QVQLVESGGGLVQAGGSLRLTCAASGTFFMGWYRQAPGKERELVAGISISDGSTYYADSVKGRFTISRDNAKNTVYLQMNSLKPEDTAVYYCAADSHYLYDYWGQGTQVTVSS	low polyreactivity
QVQLVESGGGLVQAGGSLRLTCAASGYTFRRTGMGWYRQAPGKERELVAAITNGGSTKYADSVKGRYTISRDNAKNTVYLQMNSLKPEDTAVYDCFYYVYAYDYWGQGTQVTLSS	high polyreactivity
QVQLVESGGGLVQAGGSLRLTCAATGSILSRYAMGWYRLAPGKERELVATITRRGGSTFYADSVKGRFTISRDIAKNTVYLQMNSLKPEDTAVYYCAVGRLFWGQGTQVTVSS	low polyreactivity
QVQLVESGGGLVQAGGSLRLTCADTGNIFVRNAMGWYRQAPGKERELVADISTGADTNYADSVKGRFTISRDNAKNTFYLQKNSLKPEDTAVYYCAAAAEVGEIGYWPMVYWGQVTQVTVSS	high polyreactivity
QVQLVESGGGLVQAGGSLRLTCDASGFTFPFYTMGWYRQEPGKERELVAAISASGGRTYYADSVKGRFTISRDNAKNTVYLQMNSLKPEDTGVYYCATYPTPKYFRWRGDYWGQGTQVTVSS	high polyreactivity
QVQLVESGGGLVQAGGSLRLTCDASGSTFYPYAMGWYRQAPWKERELVAAISSRDGRTYYADSVKGRFTISRDNAKNTVYLQMNSLKPEDTAVYYCAATSFNNGHRYDYWGQGTQVTVSS	high polyreactivity
QVQLVESGGGLVQAGGSLRLTCSASGYTFPRYAMGWYRQAPGKERELVAVITRRGGSTYYADSVKGRFTISRDNAKNTVYLQMNSLKPEDTSVYYCAASDPSNKSSRPGYSYDSDSWGQGTQVTVSS	high polyreactivity
QVQLVESGGGLVQAGGSLRLTFAASGRTFGYYAMGWSRQAPGKEREWVAAISWSGTSTYYADSVKGRFTISRDNAKNTVYLQLNSLKPEDTAVYYCNAVNVAVQWTSRYYYWGHGTQVTVSS	high polyreactivity
QVQLVESGGGLVQAGGSLRLTSAASGRIFSHNAMGWCRPAPGKERELVAAITVGGGSTFYADSVKGRFTISRDNAKNTVYLQMNSLKPEDTAVYYCAADYYTQWQTRYDYWGQGTQVTVSS	low polyreactivity
QVQLVESGGGLVQAGGSLRLTWAASGSTYESNAMGWYRPAPGKERELVAAISSSGGSTYYADSVKGRFTITRDNAKNTVYLQMNSLKPEDTAVYYGNKGGLSDYDYWGQGTQVTVSS	high polyreactivity
QVQLVESGGGLVQAGGSLRSSCAASGYTFRYYAMGWSRQAPGKERELVAAITSSSNTTYADSVKGRFTISRDNEKNTVYLQMNSLKPDDTGVYYCNTPYFTGYYWGQGTQVTVSS	high polyreactivity
QVQLVESGGGLVQAGGSLRVSCAASGFIFCGYARGWYRQAPGKERELDAAISSSGGSTYYADSVKGRFTISRDNAKNTDYLQMNSLKPEDTAVYYCAKVGRSRRYYYWGQGTQVTVSS	high polyreactivity
QVQLVESGGGLVQAGGSLRVSCAASGFIFHYYAMGWYRQAPGKERELVAAITYSGGSTYYADSVKGRFTISRDNAKNTVYLQMNSMKPVDTAVYYCNADSVLDLYWNMDYWGQVTQVTVSS	low polyreactivity
QVQLVESGGGLVQAGGSLRVSCAASGFIFLNNAMGWYRQAPGKERELVAAITWSGGSTYYADSVKGRFTISRDNAKNTVYLQMKSLKPEDTAVYYCAADGWLYYGVGYWGQGTQVTVSS	low polyreactivity
QVQLVESGGGLVQAGGSLRVSCAASGFTFDQYAMGWYRQAPGKERELVAAISWSGASTYYADSVKGRFTISRDNAKNTDDLQMNSLKPEDTAVYYCAVSRRRIDYDYWGQGTQVTVSS	high polyreactivity
QVQLVESGGGLVQAGGSLRVSCAASGFTFRHNAMGWYRQAPGKERELVAVISSTGTYADSVKGRFTISRDNAKNTVYLQMNSLKPEDTAVYYCAAGSDYGGSYAYDYWGQGTQVTVSS	low polyreactivity
